The values that follow come from patent US7101851 (dated 2006).

Bridges are numbered along the chain shown (N, C = ends). Where no end group is shown, it is not given here. [ ]: non-standard residue; d: D form. The star is where a group is joined. Biotin = O=C1N[C@H]2[C@H](CS[C@H]2CCCCC(=O)*)N1; Oic = O=C(O)[C@@H]1C[C@@H]2CCCC[C@@H]2N1; 2Nal = N[C@@H](Cc1ccc2ccccc2c1)C(=O)O; Hyp = O=C(O)[C@@H]1C[C@@H](O)CN1; hSer(lactone) = O=C1OCC[C@@H]1N*; Pip = O=C(O)[C@@H]1CCCCN1; NMeA = CN[C@@H](C)C(=O)O; Sar = CNCC(=O)O

What is called IC50 is the point on the concentration scale where inhibition reaches its midpoint. Higher therefore signals weaker potency.

The assay deals with T1, alpha subunit of the human FcεRI receptor expressed on Chinese hamster ovary cells (human, UniProt P12319 26-257).
T1 construct: whole, on cells; also called CHO FcεRI+ cells
T1 sequence (looked up): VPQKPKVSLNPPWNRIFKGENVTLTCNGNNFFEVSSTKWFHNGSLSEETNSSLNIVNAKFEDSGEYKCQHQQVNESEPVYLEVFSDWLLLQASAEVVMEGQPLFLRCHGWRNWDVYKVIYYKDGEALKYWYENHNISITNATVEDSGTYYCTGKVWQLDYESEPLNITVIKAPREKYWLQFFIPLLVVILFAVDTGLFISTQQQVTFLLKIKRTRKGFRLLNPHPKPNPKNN
Briefly: inhibition of 125I-IgE binding to CHO cells expressing human FcεRI alpha subunit. The protocol:
To determine the ability of peptides to inhibit IgE binding to FcεRI, a cell-based binding assay was used with radiolabeled IgE. Chinese hamster ovary cells expressing the alpha subunit of the human FcεRI receptor were cultured overnight in Falcon 96 well microtiter plates at a concentration of 5 ×10^4 cells per well. The following day the cells were rinsed three times with PBS and then once with F12/DMEM. Peptide stocks were reconstituted in 100 mM Hepes buffered water, pH 7.2, at a concentration of 5 mg/mL. Working concentrations of the peptide were diluted in assay buffer (see below). 75 uL of a desired concentration of peptide was added to the top row of a separate 96 well microtiter plate and serially diluted 1:3 in 50 uL of the assay buffer (F12/DMEM, 1% BSA, 0.05% NaN_3 and 0.025 mM Hepes pH 7.2). Starting concentrations ranged from 50–500 uM. Next, 50 uL of the diluted peptide was transferred to the 96 microtiter well plate containing a monolayer of CHO FcεRI+ cells. […] Cells were […]

Regarding NLPRCTEGPWGWVCMAY (disulfide 5-14 (inferred), synthetic) [IGE076], the IC50 was found to be 2 µM.

Regarding Ac-NLPRCTEGPWGWVC-NH2 (disulfide 5-14 (inferred), synthetic) [IGE092], the IC50 worked out at 20 µM.

For the molecule CTEGPWGWFCI-NH2 (disulfide 1-10 (inferred), synthetic) [IGE047], the IC50 was determined as 741 µM.

Ac-CTEGPWGWFCI-NH2 (disulfide 1-10 (inferred), synthetic) [IGE046] showed an IC50 of 549 µM.

As for Ac-CLEGPWGWVCI-NH2 (disulfide 1-10 (inferred), synthetic) [IGE080], the IC50 stood at 410 µM.

In turn, Ac-CLEGPWGWFCI-NH2 (disulfide 1-10 (inferred), synthetic) [IGE044] displayed an IC50 of 194 µM.

Take CLEGPWGWFCI-NH2 (disulfide 1-10 (inferred), synthetic) [IGE045]: the half-maximal inhibitory concentration (IC50) came out at 300 µM.

Ac-NLPRCTEG[Oic]WGWVCM (disulfide 5-14 (inferred), synthetic) [IGE100] had an IC50 of 364 µM.

The molecule Ac-NLPRCTEG[NMeA]WGWVCM (disulfide 5-14 (inferred), synthetic) [IGE096] displayed an IC50 of 44 µM. This IC50 lies about 8.3-fold lower than the previous one.

Take NLPRCTEGPWGWVCMAAD-NH2 (disulfide 5-14 (inferred), synthetic) [IGE043]: the 50% inhibitory concentration (IC50) was 1.4 µM.

In the case of Ac-NLPRCTEG[Pip]WGWVCM (disulfide 5-14 (inferred), synthetic) [IGE095], the IC50 was 23 µM.

Molecule Ac-NLPRCTEG[Sar]WGWVCM (disulfide 5-14 (inferred), synthetic) [IGE097] had an IC50 of 84 µM.

B1: IGE107 (peptide)
peptide: Ac-NLPCTEGPWGWVCM
modifications: disulfide 4-13 (inferred)
notes: synthetic; As printed it lacks the Arg before the first Cys
In the case of B1, the IC50 is 28 µM.

For the molecule NLPRCTEGPWGWVC-NH2 (disulfide 5-14 (inferred), synthetic) [IGE091], the IC50 was 12.8 µM. This IC50 lies about 2.2-fold lower than the previous one.

With LPRCTEGPWGWVCM-NH2 (disulfide 4-13 (inferred), synthetic) [IGE068], the IC50 turned out to be 3.3 µM. Against the preceding molecule, the IC50 is about 3.9-fold lower.

On to Ac-NLPRCTEG[Sar]WGWVCM-NH2 (disulfide 5-14, synthetic) [IGE087], for which the IC50 came out at 136 µM.

Ac-NLPRCTEG[Hyp]WGWVCM (disulfide 5-14 (inferred), synthetic) [IGE101] yielded an IC50 of 580 µM.

With Ac-NLPRCTEG[Pip]WGWVCM-NH2 (disulfide 5-14, synthetic) [IGE085], the IC50 was 38.5 µM.

Ac-NLPRCTEGP[2Nal]GWVCM (disulfide 5-14 (inferred), synthetic) [IGE103]: the IC50 stood at 1.2 µM.

The molecule NLPRCTEGPWGWVCM-NH2 (disulfide 5-14 (inferred), synthetic) [IGE057] returned an IC50 of 0.8 µM.

As to Ac-NLPRCAEGPWGWVCM (disulfide 5-14 (inferred), synthetic) [IGE208], the concentration for half-maximal inhibition (IC50) was 6.85 µM.

NLPRCTEGPAGWVCM (disulfide 5-14 (inferred), synthetic) [IGE072] returned an IC50 of 81.5 µM. This IC50 is about 12-fold higher than that of the molecule before.

The molecule NLPRCTEGPWGAVCM (disulfide 5-14 (inferred), synthetic) [IGE073] came in with an IC50 of 118 µM.

Ac-NLPRCTEGPVGWVCM (disulfide 5-14 (inferred), synthetic) [IGE106] showed an IC50 of 84 µM.

With NLPRCTEGPWGWVCI (disulfide 5-14 (inferred), synthetic) [IGE075], the IC50 is 1.4 µM.

The molecule Ac-NLPRCTEGPWGWACM (disulfide 5-14 (inferred), synthetic) [IGE209] showed an IC50 of 14.3 µM.

The molecule Ac-NLPRCTEGPWGLVCM (disulfide 5-14 (inferred), synthetic) [IGE109] came in with an IC50 of 10.6 µM. This IC50 and that of the molecule before are within 1.5-fold of each other.

Consider NLPRCTEAPWGWVCM (disulfide 5-14 (inferred), synthetic) [IGE079], for which the IC50 amounted to 462 µM.

Consider NLPRCTEGPWAWVCM (disulfide 5-14 (inferred), synthetic) [IGE074], for which the IC50 amounted to 43 µM. Compared with the last molecule, the IC50 is about 11-fold lower.

NLPRCTEGPWGWYCM (disulfide 5-14 (inferred), synthetic) [IGE077]: the IC50 amounted to 126 µM.

Ac-NLPRCTEGPWGWVCMAAD-NH2 (disulfide 5-14 (inferred), synthetic) [IGE042] came in with a half-inhibitory concentration (IC50) of 1.5 µM.

In turn, Ac-NLPRCTEGPKGWVCMADD-NH2 (disulfide 5-14 (inferred), synthetic) [IGE032] registered an IC50 of 10.8 µM. This IC50 lies about 7.2-fold higher than the previous one.

Ac-NLPRCTEGPNGWVCMAAD-NH2 (disulfide 5-14 (inferred), synthetic) [IGE050] had a 50% inhibitory concentration (IC50) of 19.4 µM.

Molecule NLPRCTEGPNGWVCMAAD-NH2 (disulfide 5-14 (inferred), synthetic) [IGE051] returned an IC50 of 23.7 µM. The IC50 values of the last two molecules are within 1.5-fold of each other.

Ac-NLPRCTEGPWGWVCMADD-NH2 (disulfide 5-14 (inferred), synthetic) [IGE031] returned an IC50 of 1.1 µM.

The molecule Ac-NLPRCTAGPWGWVCMAAD-NH2 (disulfide 5-14 (inferred), synthetic) [IGE059] yielded an IC50 of 10.5 µM.

Molecule Ac-NLPRCTEGPAWGWVCM (disulfide 5-15 (inferred), synthetic) [IGE125] yielded an IC50 of 259 µM.

With Ac-NLPRCTEGPWGWVCM (disulfide 5-14 (inferred), synthetic) [IGE063], the IC50 turned out to be 1.8 µM. Compared with the last molecule, the IC50 is about 140-fold lower.

Ac-NLPRCTEG[NMeA]WGWVCM-NH2 (disulfide 5-14, synthetic) [IGE086]: the 50% inhibitory concentration (IC50) stood at 60 µM.

Ac-NLPRCTEGPWGWVCM-NH2 (disulfide 5-14 (inferred), synthetic) [IGE058]: the IC50 is 1.8 µM.

Biotin-NLPRCTEGPWGWVCM (disulfide 5-14 (inferred), synthetic) [IGE078] yielded an IC50 of 3.4 µM. Compared with the last molecule, the IC50 is about 1.9-fold higher.

Molecule PRCTEGPWGWVCM-NH2 (disulfide 3-12 (inferred), synthetic) [IGE069] registered an IC50 of 34 µM.

Turning to Ac-NLPRCTEGPWGWVC[hSer(lactone)] (disulfide 5-14 (inferred)) [IGE133], the half-maximal inhibitory concentration (IC50) amounted to 2.5 µM.

Take NLPRCTEGPWGWVCM (disulfide 5-14 (inferred), synthetic) [IGE062]: the IC50 amounted to 1 µM.

For Ac-EIQECTEGPWGWVCM-NH2 (disulfide 5-14 (inferred), synthetic) [IGE090], the IC50 is 7.6 µM.
